This is an account of results in publication PMC5986207.

This experiment deals with human HER2 extracellular domain, soluble, His-tagged (human). The experiment can be described thus: AUC; multisignal sedimentation velocity (MSSV), 4:1 molar loading of HER2 to antibody (5.8:1.4 μM), PBS, 20 °C, 42,000 rpm, UV 280 and 250 nm and interference, SEDPHAT.

On to “MEDI4276, anti-HER2 biparatopic, monospecific, tetravalent antibody (trastuzumab scFv on the N terminus of the 39S heavy chain) (bispecific antibody)”, for which the stoichiometry N (HER2 per MEDI4276 (2:1)) amounted to 2 and the stoichiometry N (HER2 per MEDI4276 (5:3)) stood at 1.67.
